What was measured:
[1] = molecular target: T1, TRCW5 antigen (CD3δε-Fc-Avi) (biotinylated (site not stated)); assay: ELISA
T1 construct: also called recombinant CD3

[2] = molecular target: T1, TRCW5 antigen (CD3δε-Fc-Avi); assay: binding after heat

T1 sequence (chain, as listed by the source mutant limits assumed): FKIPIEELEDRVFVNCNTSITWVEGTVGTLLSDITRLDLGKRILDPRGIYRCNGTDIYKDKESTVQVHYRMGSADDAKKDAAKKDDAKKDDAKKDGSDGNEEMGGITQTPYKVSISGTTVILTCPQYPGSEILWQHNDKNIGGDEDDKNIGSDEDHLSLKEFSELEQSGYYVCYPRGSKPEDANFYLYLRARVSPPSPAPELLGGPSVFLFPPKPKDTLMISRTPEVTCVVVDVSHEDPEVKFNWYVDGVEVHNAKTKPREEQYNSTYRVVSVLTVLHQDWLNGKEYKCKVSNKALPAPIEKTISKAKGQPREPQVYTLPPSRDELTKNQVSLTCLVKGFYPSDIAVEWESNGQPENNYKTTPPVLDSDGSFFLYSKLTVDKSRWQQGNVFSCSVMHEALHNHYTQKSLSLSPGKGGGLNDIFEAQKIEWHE

| EC50 [1] | % Retained 55° C. [2] | % Retained 60° C. [2] | % Retained 65° C. [2] | Binder |
| --- | --- | --- | --- | --- |
| 0.0106 µM | 107% | 104% | 53.8% | CD3B2030 N106R (scFv) scFv: QVQLVQSGAEVKKPGSSVKVSCKASGYTFTRSTMHWVKQAPGQGLEWIGYINPSSAYTNYNQKFQGRVTLTADKSTSTAYMELSSLRSEDTAVYYCASPQVHYDYRGFPYWGQGTLVTVSSGGSEGKSSGSGSESKSTGGSEIVLTQSPATLSASPGERVTLSCSASSSVSYMNWYQQKPGQAPRRWIYDSSKLASGVPARFSGSGSGRDYTLTISSLEPEDFAVYYCQQWSRNPPTFGGGTKVEIK |
| 0.0103 µM | 113% | 108% | 33.2% | CD3B2089 N106E (scFv) scFv: QVQLVQSGAEVKKPGSSVKVSCKASGYTFTRSTMHWVRQAPGQGLEWMGYINPSSAYTNYAQKFQGRVTLTADKSTSTAYMELSSLRSEDTAVYYCASPQVHYDYEGFPYWGQGTLVTVSSGGSEGKSSGSGSESKSTGGSEIVLTQSPATLSASPGERVTLSCSASSSVSYMNWYQQKPGQAPRRWIYDSSKLASGVPARFSGSGSGRDYTLTISSLEPEDFAVYYCQQWSRNPPTFGGGTKVEIK |
| 0.0111 µM | 101% | 70.9% | 1.5% | CD3B2051 N106S (scFv) scFv: QVQLVQSGAEVKKPGSSVKVSCKASGYTFTRSTMHWVKQAPGQGLEWMGYINPSSAYTNYNQKFQGRVTLTADKSTSTAYMELSSLRSEDTAVYYCASPQVHYDYSGFPYWGQGTLVTVSSGGSEGKSSGSGSESKSTGGSEIVLTQSPATLSASPGERVTLSCSASSSVSYMNWYQQKPGQAPRRLIYDSSKLASGVPARFSGSGSGRDYTLTISSLEPEDFAVYYCQQWSRNPPTFGGGTKVEIK |
| 0.01 µM | 102% | 90.2% | 5.4% | CD3B2089 N106S (scFv) scFv: QVQLVQSGAEVKKPGSSVKVSCKASGYTFTRSTMHWVRQAPGQGLEWMGYINPSSAYTNYAQKFQGRVTLTADKSTSTAYMELSSLRSEDTAVYYCASPQVHYDYSGFPYWGQGTLVTVSSGGSEGKSSGSGSESKSTGGSEIVLTQSPATLSASPGERVTLSCSASSSVSYMNWYQQKPGQAPRRWIYDSSKLASGVPARFSGSGSGRDYTLTISSLEPEDFAVYYCQQWSRNPPTFGGGTKVEIK |
| 0.0121 µM | 98.9% | 97% | 33.3% | CD3B2051 N106A (scFv) scFv: QVQLVQSGAEVKKPGSSVKVSCKASGYTFTRSTMHWVKQAPGQGLEWMGYINPSSAYTNYNQKFQGRVTLTADKSTSTAYMELSSLRSEDTAVYYCASPQVHYDYAGFPYWGQGTLVTVSSGGSEGKSSGSGSESKSTGGSEIVLTQSPATLSASPGERVTLSCSASSSVSYMNWYQQKPGQAPRRLIYDSSKLASGVPARFSGSGSGRDYTLTISSLEPEDFAVYYCQQWSRNPPTFGGGTKVEIK |
| 0.0109 µM | 103% | 84.2% | 9% | CD3B2051 N106H (scFv) scFv: QVQLVQSGAEVKKPGSSVKVSCKASGYTFTRSTMHWVKQAPGQGLEWMGYINPSSAYTNYNQKFQGRVTLTADKSTSTAYMELSSLRSEDTAVYYCASPQVHYDYHGFPYWGQGTLVTVSSGGSEGKSSGSGSESKSTGGSEIVLTQSPATLSASPGERVTLSCSASSSVSYMNWYQQKPGQAPRRLIYDSSKLASGVPARFSGSGSGRDYTLTISSLEPEDFAVYYCQQWSRNPPTFGGGTKVEIK |
| 0.0109 µM | 87.7% | 32.6% | 0.2% | CD3B2051 N106P (scFv) scFv: QVQLVQSGAEVKKPGSSVKVSCKASGYTFTRSTMHWVKQAPGQGLEWMGYINPSSAYTNYNQKFQGRVTLTADKSTSTAYMELSSLRSEDTAVYYCASPQVHYDYPGFPYWGQGTLVTVSSGGSEGKSSGSGSESKSTGGSEIVLTQSPATLSASPGERVTLSCSASSSVSYMNWYQQKPGQAPRRLIYDSSKLASGVPARFSGSGSGRDYTLTISSLEPEDFAVYYCQQWSRNPPTFGGGTKVEIK |
| 0.0111 µM | 108% | 76.7% | 1.4% | CD3B2089 N106T (scFv) scFv: QVQLVQSGAEVKKPGSSVKVSCKASGYTFTRSTMHWVRQAPGQGLEWMGYINPSSAYTNYAQKFQGRVTLTADKSTSTAYMELSSLRSEDTAVYYCASPQVHYDYTGFPYWGQGTLVTVSSGGSEGKSSGSGSESKSTGGSEIVLTQSPATLSASPGERVTLSCSASSSVSYMNWYQQKPGQAPRRWIYDSSKLASGVPARFSGSGSGRDYTLTISSLEPEDFAVYYCQQWSRNPPTFGGGTKVEIK |
| 0.00805 µM | 78.4% | 15.4% | 0.5% | CD3B2051 N106E (scFv) scFv: QVQLVQSGAEVKKPGSSVKVSCKASGYTFTRSTMHWVKQAPGQGLEWMGYINPSSAYTNYNQKFQGRVTLTADKSTSTAYMELSSLRSEDTAVYYCASPQVHYDYEGFPYWGQGTLVTVSSGGSEGKSSGSGSESKSTGGSEIVLTQSPATLSASPGERVTLSCSASSSVSYMNWYQQKPGQAPRRLIYDSSKLASGVPARFSGSGSGRDYTLTISSLEPEDFAVYYCQQWSRNPPTFGGGTKVEIK |
| 0.0179 µM | 40.6% | 2.5% | 0.9% | CD3B2089 N106I (scFv) scFv: QVQLVQSGAEVKKPGSSVKVSCKASGYTFTRSTMHWVRQAPGQGLEWMGYINPSSAYTNYAQKFQGRVTLTADKSTSTAYMELSSLRSEDTAVYYCASPQVHYDYIGFPYWGQGTLVTVSSGGSEGKSSGSGSESKSTGGSEIVLTQSPATLSASPGERVTLSCSASSSVSYMNWYQQKPGQAPRRWIYDSSKLASGVPARFSGSGSGRDYTLTISSLEPEDFAVYYCQQWSRNPPTFGGGTKVEIK |
| 0.0112 µM | 102% | 103% | 60.4% | CD3B2089 N106R (scFv) scFv: QVQLVQSGAEVKKPGSSVKVSCKASGYTFTRSTMHWVRQAPGQGLEWMGYINPSSAYTNYAQKFQGRVTLTADKSTSTAYMELSSLRSEDTAVYYCASPQVHYDYRGFPYWGQGTLVTVSSGGSEGKSSGSGSESKSTGGSEIVLTQSPATLSASPGERVTLSCSASSSVSYMNWYQQKPGQAPRRWIYDSSKLASGVPARFSGSGSGRDYTLTISSLEPEDFAVYYCQQWSRNPPTFGGGTKVEIK |
| 0.0101 µM | 113% | 101% | 36.2% | CD3B2089 N106F (scFv) scFv: QVQLVQSGAEVKKPGSSVKVSCKASGYTFTRSTMHWVRQAPGQGLEWMGYINPSSAYTNYAQKFQGRVTLTADKSTSTAYMELSSLRSEDTAVYYCASPQVHYDYFGFPYWGQGTLVTVSSGGSEGKSSGSGSESKSTGGSEIVLTQSPATLSASPGERVTLSCSASSSVSYMNWYQQKPGQAPRRWIYDSSKLASGVPARFSGSGSGRDYTLTISSLEPEDFAVYYCQQWSRNPPTFGGGTKVEIK |
| 0.0112 µM | 101% | 74.5% | 8.4% | CD3B2051 N106R (scFv) scFv: QVQLVQSGAEVKKPGSSVKVSCKASGYTFTRSTMHWVKQAPGQGLEWMGYINPSSAYTNYNQKFQGRVTLTADKSTSTAYMELSSLRSEDTAVYYCASPQVHYDYRGFPYWGQGTLVTVSSGGSEGKSSGSGSESKSTGGSEIVLTQSPATLSASPGERVTLSCSASSSVSYMNWYQQKPGQAPRRLIYDSSKLASGVPARFSGSGSGRDYTLTISSLEPEDFAVYYCQQWSRNPPTFGGGTKVEIK |
| 0.0114 µM | 116% | 91.3% | 4% | CD3B2051 N106K (scFv) scFv: QVQLVQSGAEVKKPGSSVKVSCKASGYTFTRSTMHWVKQAPGQGLEWMGYINPSSAYTNYNQKFQGRVTLTADKSTSTAYMELSSLRSEDTAVYYCASPQVHYDYKGFPYWGQGTLVTVSSGGSEGKSSGSGSESKSTGGSEIVLTQSPATLSASPGERVTLSCSASSSVSYMNWYQQKPGQAPRRLIYDSSKLASGVPARFSGSGSGRDYTLTISSLEPEDFAVYYCQQWSRNPPTFGGGTKVEIK |
| 0.0191 µM | 64.6% | 19% | 0.6% | CD3B2030 N106S (scFv) scFv: QVQLVQSGAEVKKPGSSVKVSCKASGYTFTRSTMHWVKQAPGQGLEWIGYINPSSAYTNYNQKFQGRVTLTADKSTSTAYMELSSLRSEDTAVYYCASPQVHYDYSGFPYWGQGTLVTVSSGGSEGKSSGSGSESKSTGGSEIVLTQSPATLSASPGERVTLSCSASSSVSYMNWYQQKPGQAPRRWIYDSSKLASGVPARFSGSGSGRDYTLTISSLEPEDFAVYYCQQWSRNPPTFGGGTKVEIK |
| 0.0152 µM | 54.9% | 1.4% | 0.7% | CD3B2051 N106V (scFv) scFv: QVQLVQSGAEVKKPGSSVKVSCKASGYTFTRSTMHWVKQAPGQGLEWMGYINPSSAYTNYNQKFQGRVTLTADKSTSTAYMELSSLRSEDTAVYYCASPQVHYDYVGFPYWGQGTLVTVSSGGSEGKSSGSGSESKSTGGSEIVLTQSPATLSASPGERVTLSCSASSSVSYMNWYQQKPGQAPRRLIYDSSKLASGVPARFSGSGSGRDYTLTISSLEPEDFAVYYCQQWSRNPPTFGGGTKVEIK |
| 0.0138 µM | 98.9% | 33.1% | 1.5% | CD3B2051 N106G (scFv) scFv: QVQLVQSGAEVKKPGSSVKVSCKASGYTFTRSTMHWVKQAPGQGLEWMGYINPSSAYTNYNQKFQGRVTLTADKSTSTAYMELSSLRSEDTAVYYCASPQVHYDYGGFPYWGQGTLVTVSSGGSEGKSSGSGSESKSTGGSEIVLTQSPATLSASPGERVTLSCSASSSVSYMNWYQQKPGQAPRRLIYDSSKLASGVPARFSGSGSGRDYTLTISSLEPEDFAVYYCQQWSRNPPTFGGGTKVEIK |

From patent US20250145711A1 (Janssen / Centocor, published 2025)
